The values that follow come from patent US20260242487A1 (HANGZHOU ZHONGMEIHUADONG PHARMACEUTICAL, published 2026).

The target in one assay is T1, FGFR2b-his (human, UniProt P21802-3 22-378).
T1 construct: also called human FGFR2b antigen; human FGFR2b (FGFR2b-his); not shown: his tag
The assay is described as follows: surface plasmon resonance (Octet, Sartorius): antibody immobilized by amine coupling, FGFR2b-his flowed over. The procedure:
The binding affinities of anti-FGFR2b mAbs for human FGFR2b (FGFR2b-his) was measured using surface plasmon resonance (Octet, Sartorius). Anti-FGFR2b mAbs were immobilized on a dextran chip using the amine coupling kit and 100 mM ethylenediamine in 100 mM sodium borate, pH 8.0, was used as the blocking reagent. FGFR2b-his proteins diluted in HEPES-buffered saline with 0.05% surfactant P20 running buffer were flowed over the immobilized antibody.
On the technique in general: Surface plasmon resonance follows binding to a sensor surface in real time, without labels.

Assay [1] has as its target T2, human FGFR2b expressed on cells (hFGFR2b-expressing CHOK1 cells); Ba/F3 cells expressing full-length human … (human, UniProt P21802-3 22-822).
T2 construct: whole, on cells; also called FGFR2IIIb; CHOK1-FGFR2IIIb transfectants
The assay is described as follows: flow cytometry on CHOK1 cells expressing hFGFR2b, detection with APC anti-human IgG Fc. Here is the method:
Appropriate cells (1×10⁵) were washed twice in FACS buffer (PBS+2% BSA), resuspended in 100 μl of FACS buffer containing serial diluted (1:5) anti-FGFR2b mAbs, and incubated at 4° C. for 1 hour. Cells were then washed twice in FACS buffer and the bound antibodies were detected by incubation with APC anti-human IgG Fc (Biolegend, Catalog #410712) for 1 hour at 4° C. After washing twice in FACS buffer, cells were analyzed on a Cytoflex (Beckmann Coulter). Aprutumab was also tested as a positive control which can bind to both FGFR2b and FGFR2c.
A general note: A flow cytometer gives signals particle by particle.

In assay [2] the target is T3, hFGFR2b-Fc (Kactus, Catalog #FGR-HM2BB) (human, UniProt P21802-3 22-378, biotinylated in Example 9 (printed as biotin-hFGFR2b-Fc; site not stated)).
T3 construct: Bought reagent; also called biotin-hFGFR2b-Fc; not shown: Fc part
T3 sequence (P21802 other isoform, or with tags, fused parts or gaps): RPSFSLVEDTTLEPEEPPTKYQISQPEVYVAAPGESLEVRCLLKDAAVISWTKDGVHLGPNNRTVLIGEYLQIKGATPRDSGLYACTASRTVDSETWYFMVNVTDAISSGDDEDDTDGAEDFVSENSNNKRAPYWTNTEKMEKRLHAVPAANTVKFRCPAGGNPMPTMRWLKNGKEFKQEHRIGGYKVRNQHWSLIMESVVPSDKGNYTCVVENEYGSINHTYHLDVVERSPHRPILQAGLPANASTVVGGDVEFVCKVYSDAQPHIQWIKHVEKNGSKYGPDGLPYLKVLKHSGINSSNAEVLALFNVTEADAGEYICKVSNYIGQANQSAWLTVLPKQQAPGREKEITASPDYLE
The assay is described as follows: competition ELISA: inhibition of FGF7-his binding to coated hFGFR2b-Fc. The procedure:
(§1) Inhibition of binding of FGF7 and FGF10 to FGFR2b by anti-FGFR2b antibodies was measured by ELISA assay. Each step of each assay was performed by room temperature incubation with the appropriate reagent for 1 hour, except the initial plate coating step was done overnight at 4° C. Between each step, plates were washed 3 times in PBS containing 0.05% Tween 20.
(§2) To determine the abilities of the anti-FGFR2b mAbs to block ligand binding to FGFR2b, plates were coated with 1 μg/ml hFGFR2b-Fc (Kactus, Catalog #FGR-HM2BB), and followed by blocking with 2% BSA. The plates were next incubated with human FGF7-his (20 nM, Sino Biological, Catalog #10210-H07E) or biotin-FGF10 (5 nM, Kactus, Catalog #FGF-HE010B) in the presence of serial diluted (1:5) anti-FGFR2b mAbs, and the bound ligands were detected with HRP-anti 6×His tag (Abcam, Catalog #ab1187) or Streptavidin-Protein HRP (Thermo, Catalog #21126) and TMB substrate (Cell Signaling, Catalog #7004P6).
On the technique in general: ELISA stands for enzyme-linked immunosorbent assay.

The target of assay [3] is T3, hFGFR2b-Fc (Kactus, Catalog #FGR-HM2BB). The assay is described as follows: competition ELISA: inhibition of biotin-FGF10 binding to coated hFGFR2b-Fc. The procedure: as §1, §2

The Kd is a measure of binding affinity in units of concentration. A high value points to weaker binding. As a reminder, the koff is a measure of how fast the partners let go of each other. Higher therefore signals fast dissociation. The kon is the second-order rate constant of association. The term EC50 (read off the curve) denotes the concentration giving half of the maximal effect. As usually defined, the IC50 is the midpoint of a concentration-inhibition curve.

T2 sequence (P21802 other isoform, or with tags, fused parts or gaps): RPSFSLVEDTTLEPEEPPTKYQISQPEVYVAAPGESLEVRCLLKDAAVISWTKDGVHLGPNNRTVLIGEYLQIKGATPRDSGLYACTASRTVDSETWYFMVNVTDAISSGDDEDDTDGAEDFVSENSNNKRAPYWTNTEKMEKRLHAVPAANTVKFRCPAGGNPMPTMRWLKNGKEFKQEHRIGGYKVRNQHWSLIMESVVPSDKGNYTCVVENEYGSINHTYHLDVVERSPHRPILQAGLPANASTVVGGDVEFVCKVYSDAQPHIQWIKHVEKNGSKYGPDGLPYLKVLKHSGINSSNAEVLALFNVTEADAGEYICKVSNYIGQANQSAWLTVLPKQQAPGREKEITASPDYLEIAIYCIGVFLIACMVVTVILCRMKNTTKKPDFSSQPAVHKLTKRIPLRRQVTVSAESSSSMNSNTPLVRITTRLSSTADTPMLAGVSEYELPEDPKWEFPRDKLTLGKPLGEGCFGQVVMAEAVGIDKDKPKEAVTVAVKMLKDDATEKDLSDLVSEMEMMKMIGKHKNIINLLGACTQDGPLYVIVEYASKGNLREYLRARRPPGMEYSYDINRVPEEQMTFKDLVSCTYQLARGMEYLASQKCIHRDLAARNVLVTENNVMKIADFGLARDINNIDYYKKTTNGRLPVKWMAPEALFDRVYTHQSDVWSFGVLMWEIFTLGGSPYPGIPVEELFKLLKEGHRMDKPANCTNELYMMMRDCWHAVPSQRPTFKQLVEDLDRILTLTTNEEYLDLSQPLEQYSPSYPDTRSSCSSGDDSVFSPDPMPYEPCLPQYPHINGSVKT

B1: HC18 (antibody, human IgG1, kappa, V domains shown)
VH: EVQLQQSGTVLARPGASVKMSCKTSGYTFTSYWMHWVKQRPGQGLEWIGSIYPENSDTSYNQKFKGKAKLTAVTSASTAYMDLSSLTNEDSAVYYCSIYHGYDGDYWGQGTTLTVSS
VL: QIVLTQSPAIMSASPGEKVTITCSASSSVSYMYWFQQKPGTSPKLWIYSTSNLASGVPARFSGSGSGTSYSLTISRMEAEDAATYYCQQRSSYPYTFGGGTKLEIKR
notes: also called mAb HC18; the antibody of the present disclosure
Regarding B1, in the assay with FGFR2b-his, the dissociation constant Kd was determined as 26.7 nM, the koff worked out at 0.005 s⁻¹ and the kon came to 187000 M⁻¹ s⁻¹. The “EC50 (read off the curve)” value in assay [1] is around 0.4 nM. Moreover, in assay [2], the IC50 turned out to be 3.82 nM. The IC50 in assay [3] came to 4.99 nM.
